Measurements: article PMC7954794 (2021)

B1: S. cerevisiae Abp1 (full length; SH3 domain 535-592 mutated) / Hua2 (parent complex)
chain 1: MALEPIDYTTHSREIDAEYLKIVRGSDPDTTWLIISPNAKKEYEPESTGSSFHDFLQLFDETKVQYGLARVSPPGSDVEKIIIIGWCPDSAPLKTRASFAANFAAVANNLFKGYHVQVTARDEDDLDENELLMKISNAAGARYSIQTSSKQQGKASTPPVKKSFTPSKSPAPVSKKEPVKTPSPAPAAKISSRVNDNNDDDDWNEPELKERDFDQAPLKPNQSSYKPIGKIDLQKVIAEEKAKEDPRLVQKPTAAGSKIDPSSDIANLKNESKLKRDSEFNSFLGTTKPPSMTESSLKNDDDKVIKGFRNEKSPAQLWAERKAKQNSGNAETKAEAPKPEVPEDEPEGEPDVKDLKSKFEGLAASEKEEEEMENKFAPPPKKSEPTIISPKPFSKPQEPVKAEEAEQPKTDYKKIGNPLPGMHIEADNEEEPEENDDDWDDDEDEAAQPPLPSRNVASGAPVQKEEPEQEEIAPSLPSRNSIPAPKQEEAPEQAPEEEIEEEAEEAAPQLPSRSSAAPPPPPRRATPEKKPKENPWATAEYDYDAAEDNELTFVENDKIINIEFVDDDWWLGELEKDGSKGLFPSNYVSLGN
chain 2: MQQTKFGKMYLDHDSVVEYSEDEIVEADRITLGYKKRLSMIENQMRHLLEDFSLDVQQIEPILADLQKYYDAFLQLLQKRNKSLQCKRSTHQPVPSPMNSQTSTNAKVNLSGKLMKFQLNSVQKFDEENILRILQNKIEFEHYFQIDKGKKQKVLLLAVYQCLNGPTRLHKVLNIEGIIHNNSIRTILGKQVSSSKWTVFLYDVKLVLLAHRQDVPNLETSKMIVRYGDLFPCALYFKDHTAY

Variants of: B1
Experiment: DHFR protein-fragment complementation in yeast (Abp1-DHFR F[1,2] x partner-DHFR F[3]), deep mutational scanning, second methotrexate selection vs reference; S. cerevisiae, DHFR-PCA selection in liquid with methotrexate at 30 C, two 72 h selections (the score uses the second); reference = the pre-selection culture

Variant	screen value
chain 1 MALEPIDYTTHSREIDAEYLKIVRGSDPDTTWLIISPNAKKEYEPESTGSSFHDFLQLFDETKVQYGLARVSPPGSDVEKIIIIGWCPDSAPLKTRASFAANFAAVANNLFKGYHVQVTARDEDDLDENELLMKISNAAGARYSIQTSSKQQGKASTPPVKKSFTPSKSPAPVSKKEPVKTPSPAPAAKISSRVNDNNDDDDWNEPELKERDFDQAPLKPNQSSYKPIGKIDLQKVIAEEKAKEDPRLVQKPTAAGSKIDPSSDIANLKNESKLKRDSEFNSFLGTTKPPSMTESSLKNDDDKVIKGFRNEKSPAQLWAERKAKQNSGNAETKAEAPKPEVPEDEPEGEPDVKDLKSKFEGLAASEKEEEEMENKFAPPPKKSEPTIISPKPFSKPQEPVKAEEAEQPKTDYKKIGNPLPGMHIEADNEEEPEENDDDWDDDEDEAAQPPLPSRNVASGAPVQKEEPEQEEIAPSLPSRNSIPAPKQEEAPEQAPEEEIEEEAEEAAPQLPSRSSAAPPPPPRRATPEKKPKENPWATAEYDYDAAEDNELTFVENDKIINIEFVDQDWWLGELEKDGSKGLFPSNYVSLGN [chain 1 D567Q]	-2.97 DMS score: mean over two replicates of log2(f_test/f_ref + 0.5)/ln 2, minus the synonymous-codon median (not a log2 …
chain 1 MALEPIDYTTHSREIDAEYLKIVRGSDPDTTWLIISPNAKKEYEPESTGSSFHDFLQLFDETKVQYGLARVSPPGSDVEKIIIIGWCPDSAPLKTRASFAANFAAVANNLFKGYHVQVTARDEDDLDENELLMKISNAAGARYSIQTSSKQQGKASTPPVKKSFTPSKSPAPVSKKEPVKTPSPAPAAKISSRVNDNNDDDDWNEPELKERDFDQAPLKPNQSSYKPIGKIDLQKVIAEEKAKEDPRLVQKPTAAGSKIDPSSDIANLKNESKLKRDSEFNSFLGTTKPPSMTESSLKNDDDKVIKGFRNEKSPAQLWAERKAKQNSGNAETKAEAPKPEVPEDEPEGEPDVKDLKSKFEGLAASEKEEEEMENKFAPPPKKSEPTIISPKPFSKPQEPVKAEEAEQPKTDYKKIGNPLPGMHIEADNEEEPEENDDDWDDDEDEAAQPPLPSRNVASGAPVQKEEPEQEEIAPSLPSRNSIPAPKQEEAPEQAPEEEIEEEAEEAAPQLPSRSSAAPPPPPRRATPEKKPKENPWATAEYDYDAAEDNELTFVENDKIINIEFVDHDWWLGELEKDGSKGLFPSNYVSLGN [chain 1 D567H]	-2.08 DMS score: mean over two replicates of log2(f_test/f_ref + 0.5)/ln 2, minus the synonymous-codon median (not a log2 …

Other lines, results leading:

screen value	Variant
0.0612 DMS score: mean over two replicates of log2(f_test/f_ref + 0.5)/ln 2, minus the synonymous-codon median (not a log2 …	chain 1 MALEPIDYTTHSREIDAEYLKIVRGSDPDTTWLIISPNAKKEYEPESTGSSFHDFLQLFDETKVQYGLARVSPPGSDVEKIIIIGWCPDSAPLKTRASFAANFAAVANNLFKGYHVQVTARDEDDLDENELLMKISNAAGARYSIQTSSKQQGKASTPPVKKSFTPSKSPAPVSKKEPVKTPSPAPAAKISSRVNDNNDDDDWNEPELKERDFDQAPLKPNQSSYKPIGKIDLQKVIAEEKAKEDPRLVQKPTAAGSKIDPSSDIANLKNESKLKRDSEFNSFLGTTKPPSMTESSLKNDDDKVIKGFRNEKSPAQLWAERKAKQNSGNAETKAEAPKPEVPEDEPEGEPDVKDLKSKFEGLAASEKEEEEMENKFAPPPKKSEPTIISPKPFSKPQEPVKAEEAEQPKTDYKKIGNPLPGMHIEADNEEEPEENDDDWDDDEDEAAQPPLPSRNVASGAPVQKEEPEQEEIAPSLPSRNSIPAPKQEEAPEQAPEEEIEEEAEEAAPQLPSRSSAAPPPPPRRATPEKKPKENPWATAEYDYDAAEDFELTFVENDKIINIEFVDDDWWLGELEKDGSKGLFPSNYVSLGN [chain 1 N549F]
-1.08 DMS score: mean over two replicates of log2(f_test/f_ref + 0.5)/ln 2, minus the synonymous-codon median (not a log2 …	chain 1 MALEPIDYTTHSREIDAEYLKIVRGSDPDTTWLIISPNAKKEYEPESTGSSFHDFLQLFDETKVQYGLARVSPPGSDVEKIIIIGWCPDSAPLKTRASFAANFAAVANNLFKGYHVQVTARDEDDLDENELLMKISNAAGARYSIQTSSKQQGKASTPPVKKSFTPSKSPAPVSKKEPVKTPSPAPAAKISSRVNDNNDDDDWNEPELKERDFDQAPLKPNQSSYKPIGKIDLQKVIAEEKAKEDPRLVQKPTAAGSKIDPSSDIANLKNESKLKRDSEFNSFLGTTKPPSMTESSLKNDDDKVIKGFRNEKSPAQLWAERKAKQNSGNAETKAEAPKPEVPEDEPEGEPDVKDLKSKFEGLAASEKEEEEMENKFAPPPKKSEPTIISPKPFSKPQEPVKAEEAEQPKTDYKKIGNPLPGMHIEADNEEEPEENDDDWDDDEDEAAQPPLPSRNVASGAPVQKEEPEQEEIAPSLPSRNSIPAPKQEEAPEQAPEEEIEEEAEEAAPQLPSRSSAAPPPPPRRATPEKKPKENPWATAQYDYDAAEDNELTFVENDKIINIEFVDDDWWLGELEKDGSKGLFPSNYVSLGN [chain 1 E540Q]
-0.0642 DMS score: mean over two replicates of log2(f_test/f_ref + 0.5)/ln 2, minus the synonymous-codon median (not a log2 …	chain 1 MALEPIDYTTHSREIDAEYLKIVRGSDPDTTWLIISPNAKKEYEPESTGSSFHDFLQLFDETKVQYGLARVSPPGSDVEKIIIIGWCPDSAPLKTRASFAANFAAVANNLFKGYHVQVTARDEDDLDENELLMKISNAAGARYSIQTSSKQQGKASTPPVKKSFTPSKSPAPVSKKEPVKTPSPAPAAKISSRVNDNNDDDDWNEPELKERDFDQAPLKPNQSSYKPIGKIDLQKVIAEEKAKEDPRLVQKPTAAGSKIDPSSDIANLKNESKLKRDSEFNSFLGTTKPPSMTESSLKNDDDKVIKGFRNEKSPAQLWAERKAKQNSGNAETKAEAPKPEVPEDEPEGEPDVKDLKSKFEGLAASEKEEEEMENKFAPPPKKSEPTIISPKPFSKPQEPVKAEEAEQPKTDYKKIGNPLPGMHIEADNEEEPEENDDDWDDDEDEAAQPPLPSRNVASGAPVQKEEPEQEEIAPSLPSRNSIPAPKQEEAPEQAPEEEIEEEAEEAAPQLPSRSSAAPPPPPRRATPEKKPKENPWATAEYDYDAAEDNELTFVCNDKIINIEFVDDDWWLGELEKDGSKGLFPSNYVSLGN [chain 1 E555C]
